Laboratory results taken from paper PMC12264150, “A chromatin-remodeling-independent role for ATRX in protecting centromeric cohesion” (The EMBO Journal, 2025).

T1: GST-Pds5B (1–300) (UniProt Q9NTI5 1-300)
T1 construct: Pds5B residues 1–300, in pGEX-4T1; also called GST-fused Pds5B (1–300) fragment; GST-Pds5B (1–300) WT; source: E. coli BL21 (DE3), purified (Glutathione Sepharose 4B); not shown: GST, N-terminal, kept
T1 sequence (looked up): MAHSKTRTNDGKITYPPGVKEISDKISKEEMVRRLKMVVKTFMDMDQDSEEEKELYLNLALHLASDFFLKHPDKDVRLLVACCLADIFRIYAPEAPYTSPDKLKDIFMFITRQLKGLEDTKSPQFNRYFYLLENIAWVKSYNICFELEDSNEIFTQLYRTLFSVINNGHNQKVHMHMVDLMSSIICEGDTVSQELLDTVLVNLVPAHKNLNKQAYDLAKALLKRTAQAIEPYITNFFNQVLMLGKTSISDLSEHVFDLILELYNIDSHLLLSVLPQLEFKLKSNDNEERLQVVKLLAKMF

T2: MBP-Pds5B (1–300) (UniProt Q9NTI5 1-300)
T2 construct: Pds5B residues 1–300, in pMAL-C2E; also called recombinant MBP-Pds5B (1–300); purified MBP-Pds5B; source: E. coli BL21 (DE3), purified (Amylose Resin); not shown: MBP, N-terminal, kept
T2 sequence (looked up): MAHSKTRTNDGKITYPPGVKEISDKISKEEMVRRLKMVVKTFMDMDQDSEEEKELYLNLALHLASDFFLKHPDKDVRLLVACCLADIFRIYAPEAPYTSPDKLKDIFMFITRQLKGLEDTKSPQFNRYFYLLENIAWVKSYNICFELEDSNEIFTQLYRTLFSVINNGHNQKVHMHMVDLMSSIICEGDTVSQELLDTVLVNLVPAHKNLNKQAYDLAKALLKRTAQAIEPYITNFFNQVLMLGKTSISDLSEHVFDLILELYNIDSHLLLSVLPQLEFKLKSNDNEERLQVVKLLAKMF


What follows are binders tested against T1, GST-Pds5B (1–300) (assay: pull-down; recombinant GFP-ATRX (1394–1443)-2xStrep (wild-type or mutants) pulled down with GST or GST-Pds5B (1–300); immunoblot for GFP and CBB). Settings: both partners purified.

binding result	Binder
binds	SESEDEQRPRTRSAKKAELEENQASYKQKKKRRRIKVQEDSSSENKSNSE (domain or fragment, UniProt P46100 1394-1443, looked up, source: E. coli BL21 (DE3), purified (Strep-Tactin Superflow); not shown: GFP, N-terminal, kept; 2xStrep, C-terminal, kept) [GFP-ATRX (1394–1443)-2xStrep R1417A]
binds	SESEDEQRPRTRSAKKAELEANQRSYKQKKKRRRIKVQEDSSSENKSNSE (domain or fragment, UniProt P46100 1394-1443, looked up, source: E. coli BL21 (DE3), purified (Strep-Tactin Superflow); not shown: GFP, N-terminal, kept; 2xStrep, C-terminal, kept) [GFP-ATRX (1394–1443)-2xStrep E1414A]
binds	SESEDEQRPRTRSAKKAELEENQRSYAQKKKRRRIKVQEDSSSENKSNSE (domain or fragment, UniProt P46100 1394-1443, looked up, source: E. coli BL21 (DE3), purified (Strep-Tactin Superflow); not shown: GFP, N-terminal, kept; 2xStrep, C-terminal, kept) [GFP-ATRX (1394–1443)-2xStrep K1420A]

Second part, the binder before the results:

Binder	binding result
SESEDEQRPRTRSAKKAELEENQRSYKQKKKRRRIKVQEDSSSENKSNSE (domain or fragment, UniProt P46100 1394-1443, looked up, source: E. coli BL21 (DE3), purified (Strep-Tactin Superflow); not shown: GFP, N-terminal, kept; 2xStrep, C-terminal, kept) [GFP-ATRX (1394–1443)-2xStrep]	binds
SESEDEQRPRTRSAKKAELEENQRAYKQKKKRRRIKVQEDSSSENKSNSE (domain or fragment, UniProt P46100 1394-1443, looked up, source: E. coli BL21 (DE3), purified (Strep-Tactin Superflow); not shown: GFP, N-terminal, kept; 2xStrep, C-terminal, kept) [GFP-ATRX (1394–1443)-2xStrep S1418A]	binds
SESEDEQRPRTRSAKKAELEENQRSYKAKKKRRRIKVQEDSSSENKSNSE (domain or fragment, UniProt P46100 1394-1443, looked up, source: E. coli BL21 (DE3), purified (Strep-Tactin Superflow); not shown: GFP, N-terminal, kept; 2xStrep, C-terminal, kept) [GFP-ATRX (1394–1443)-2xStrep Q1421A]	binds
SESEDEQRPRTRSAKKAELEENARSYKQKKKRRRIKVQEDSSSENKSNSE (domain or fragment, UniProt P46100 1394-1443, looked up, source: E. coli BL21 (DE3), purified (Strep-Tactin Superflow); not shown: GFP, N-terminal, kept; 2xStrep, C-terminal, kept) [GFP-ATRX (1394–1443)-2xStrep Q1416A]	binds
SESEDEQRPRTRSAKKAELEEAQRSYKQKKKRRRIKVQEDSSSENKSNSE (domain or fragment, UniProt P46100 1394-1443, looked up, source: E. coli BL21 (DE3), purified (Strep-Tactin Superflow); not shown: GFP, N-terminal, kept; 2xStrep, C-terminal, kept) [GFP-ATRX (1394–1443)-2xStrep N1415A]	binds
SESEDEQRPRTRSAKKAELAENQRSYKQKKKRRRIKVQEDSSSENKSNSE (domain or fragment, UniProt P46100 1394-1443, looked up, source: E. coli BL21 (DE3), purified (Strep-Tactin Superflow); not shown: GFP, N-terminal, kept; 2xStrep, C-terminal, kept) [GFP-ATRX (1394–1443)-2xStrep E1413A]	binds

The binders below were run against T2, MBP-Pds5B (1–300) (assay: pull-down; competitive: purified MBP-Pds5B (1–300) mixed with GFP-2xStrep or increasing amounts of GFP-ATRX (1394–1443)-2xStrep (WT or Y1419A), pulled down with Wapl (1–28)-GST). Settings: both partners purified.

binding result	Binder
binds	MTSRFGKTYSRKGGNGSSKFDEVFSNKR (domain or fragment, UniProt Q7Z5K2 1-28, looked up, Wapl residues 1–28, in pETGEX-CT; also called short Wapl fragment (residues 1–28) containing the YSR motif; Wapl (1–28)-GST WT; source: E. coli BL21 (DE3), purified (Glutathione Sepharose 4B); not shown: GST, C-terminal, kept) [Wapl (1–28)-GST]
binds	SESEDEQRPRTRSAKKAELEENQRSYKQKKKRRRIKVQEDSSSENKSNSE (domain or fragment, UniProt P46100 1394-1443, looked up, source: E. coli BL21 (DE3), purified (Strep-Tactin Superflow); not shown: GFP, N-terminal, kept; 2xStrep, C-terminal, kept) [GFP-ATRX (1394–1443)-2xStrep]
